Laboratory results from patent US20250051454A1 (DUKE UNIVERSITY, published 2025).
Where a chain is given by its changes, count along the chain named.

B1: CA152 (antibody, V domains shown)
VH: QVQLVQSGAEVKKPGSSVKVSCKASGGTFSSYAISWVRQAPGQGLEWMGGIIPIFGTANYAQKFQGRVTITADESTSTAYMELSSLRSEDTAVYYCARGQWSPGGYGMDVWGQGTTVTVSS
VL: not shown
B2: CA150 (antibody, V domains shown)
VH: QVQLVQSGAEVKKPGSSVKVSCKASGGTFSSYAISWVRQAPGQGLEWMGGIIPIFGTANYAQKFQGRVTITADESTSTAYMELSSLRSEDTAVYYCASFPNCSSTSCYYYYYMDVWGKGTTVTVSS
VL: QSALTQPASVSGSPGQSITISCTGTSSDVGGYNYVSWYQQHPGKAPKLMIYDVSNRPSGVSNRFSGSKSGNTASLTISGLQAEDEADYYCSSYTSSSTRDVVFGGGTKLTVL
B3: CA124 (antibody, V domains shown)
VH: EVQLVQSGGGLVKPGGSLRLSCAASGFTFSDYYMSWIRQAPGKGLEWVSYISSSGSTIYYADSVKGRFTISRDNAKNSLYLQMNSLRAEDTAVYYCASGFSSWGADDYWGQGTLVTVSS
VL: DIVMTQSPSSLSASVGDRVTITCRASQGISNYLAWFQQKPGKAPKSLIYAASSLQSGVPSKFSGSGSGTDFTLTISSLQPEDFATYYCQQYNSYPLTFGQGTKLEIK
B4: CA139 (antibody, V domains shown)
VH: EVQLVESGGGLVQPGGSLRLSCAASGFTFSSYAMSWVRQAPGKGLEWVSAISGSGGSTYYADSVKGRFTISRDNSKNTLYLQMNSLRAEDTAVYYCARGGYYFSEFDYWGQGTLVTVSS
VL: B3 VL with Q100G, L104V
B5: CA144 (antibody, V domains shown)
VH: QVQLVQSGGGLVKPGGSLRLSCAASGFTFSSYSMNWVRQAPGKGLEWVSSISSSSSYIYYADSVKGRFTISRDNAKNSLYLQMNSLRAEDTAVYYCARDRVEMAFHFDYWGQGTLVTVSS
VL: not shown
B6: CA118 (antibody, V domains shown)
VH: EVQLVESGGGLVKPGGSLRLSCAASGFTFSSYSMNWVRQAPGKGLEWVSSISSSSSYIYYADSVKGRFTISRDNAKNSLYLQMNSLRAEDTAVYYCARGWQQLAYWDYWGQGTLVTVSS
VL: SYELTQPPSVSVAPGQTARITCGGNNIGSKSVHWYQQKPGQAPVLVVYDDSDRPSGIPERFSGSNSGNTATLTISRVEAGDEADYYCQVWDSSSDHYVFGTGTKVTVL
B7: CA153 (antibody, V domains shown)
VH: EVQLVESGGGLVKPGGSLRLSCAASGFTFSSYSMNWVRQAPGKGLEWVSSISSSSSYIYYADSVKGRFTISRDNAKNSLYLQMNSLRAEDTAVYYCARLTYYYYMDVWGKGTTVTVSS
VL: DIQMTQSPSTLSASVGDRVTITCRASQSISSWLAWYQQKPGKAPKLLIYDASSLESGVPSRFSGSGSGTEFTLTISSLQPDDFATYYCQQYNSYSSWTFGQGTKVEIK
B8: CA158 (antibody, V domains shown)
VH: B7 VH with L99M, T100Y, Y101Q, Y102L, Y103A, Y104A, M105I, V107Y, K110Q, T113L
VL: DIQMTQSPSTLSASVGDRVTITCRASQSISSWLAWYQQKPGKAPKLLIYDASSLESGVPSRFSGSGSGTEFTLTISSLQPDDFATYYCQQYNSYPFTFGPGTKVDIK
B9: CA148 (antibody, V domains shown)
VH: QVQLVQSGAEVKKPGASVKVSCKASGYTFTSYGISWVRQAPGQGLEWMGWISAYNGNTNYAQKLQGRVTMTTDTSTSTAYMELRSLRSDDTAVYYCARTPGDEYYYYYYMDVWGKGTTVTVSS
VL: EIVLTQSPATLSLSPGERATLSCRASQSVSSYLAWYQQKPGQAPRLLIYDASNRATGIPARFSGSGSGTDFTLTISSLEPEDFAVYYCQQRSNWPRTFGQGTKLEIK
B10: CA151 (antibody, V domains shown)
VH: QVQLQESGPGLVKPSETLSLTCTVSGGSVSSGSYYWSWIRQPPGKGLEWIGYIYYSGSTNYNPSLKSRVTISVDTSKNQFSLKLSSVTAADTAVYYCASFTRMSPYAFDIWGQGTMVTVSS
VL: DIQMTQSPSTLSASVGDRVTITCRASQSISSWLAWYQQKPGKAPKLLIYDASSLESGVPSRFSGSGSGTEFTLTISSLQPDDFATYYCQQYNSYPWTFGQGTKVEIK
B11: CA128 (antibody, V domains shown)
VH: QVQLVQSGGGLVKPGGSLRLSCAASGFTFSDYYMSWIRQAPGKGLEWVSYISSSGSTIYYADSVKGRFTISRDNAKNSLYLQMNSLRAEDTAVYYCARDSGSFVGVFDYWGQGTLVTVSS
VL: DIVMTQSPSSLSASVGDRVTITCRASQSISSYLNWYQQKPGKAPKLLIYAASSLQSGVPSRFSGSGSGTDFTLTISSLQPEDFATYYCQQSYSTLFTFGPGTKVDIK
B12: CA145 (antibody, V domains shown)
VH: B11 VH with Q1E, Q6E, S100V, G101L, S102E, F103L, V104R, G105W, V106W, Y109P
VL: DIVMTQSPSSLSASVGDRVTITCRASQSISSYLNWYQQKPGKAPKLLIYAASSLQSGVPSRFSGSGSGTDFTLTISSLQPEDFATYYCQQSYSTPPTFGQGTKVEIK
B13: CA157 (antibody, V domains shown)
VH: EVQLVESGGGLVQPGGSLRLSCAASGFTFSSYEMNWVRQAPGKGLEWVSYISSSGSTIYYADSVKGRFTISRDNAKNSLYLQMNSLRAEDTAVYYCARGYCSSTSCPFDYWGQGTLVTVSS
VL: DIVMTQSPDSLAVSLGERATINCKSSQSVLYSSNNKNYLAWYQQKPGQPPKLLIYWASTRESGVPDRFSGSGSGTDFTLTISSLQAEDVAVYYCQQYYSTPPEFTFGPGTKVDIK
B14: CA154 (antibody, V domains shown)
VH: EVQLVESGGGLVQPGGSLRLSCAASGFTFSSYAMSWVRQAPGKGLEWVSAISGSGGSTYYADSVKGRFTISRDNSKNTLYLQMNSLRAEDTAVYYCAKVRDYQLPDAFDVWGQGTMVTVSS
VL: AIRMTQSPSSFSASTGDRVTITCRASQGISSYLAWYQQKPGKAPKLLIYAASTLQSGVPSRFSGSGSGTDFTLTISCLQSEDFATYYCQQYYSYALTFGGGTKVEIK
B15: CA146 (antibody, V domains shown)
VH: EVQLVQSGGGVVQPGRSLRLSCAASGFTFSSYGMHWVRQAPGKGLEWVAVISYDGSNKYYADSVKGRFTISRDNSKNTLYLQMNSLRAEDTAVYYCAKDRYSIVGATSNGMDVWGQGTTVTVSS
VL: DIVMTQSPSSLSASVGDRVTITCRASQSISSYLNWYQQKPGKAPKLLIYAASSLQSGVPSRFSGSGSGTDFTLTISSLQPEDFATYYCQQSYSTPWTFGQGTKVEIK
B16: CA131 (antibody, V domains shown)
VH: QVQLQESGSGLVKPSQTLSLTCAVSGGSISSGGYSWSWIRQPPGKGLEWIGYIYHSGSTYYNPSLKSRVTISVDRSKNQFSLKLSSVTAADTAVYYCATGGGHKELGGWGPRGTLVTVSS
VL: not shown
B17: CA159 (antibody, V domains shown)
VH: QVQLVQSGAEVKKPGSSVKVSCKASGGTFSSYAISWVRQAPGQGLEWMGGIIPIFGTANYAQKFQGRVTITADESTSTAYMELSSLRSEDTAVYYCARASYYYYYMDVWGKGTTVTVSS
VL: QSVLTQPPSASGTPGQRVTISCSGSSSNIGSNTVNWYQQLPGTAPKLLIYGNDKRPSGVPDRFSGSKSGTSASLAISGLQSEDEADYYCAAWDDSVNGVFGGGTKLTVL
B18: CA141 (antibody, V domains shown)
VH: QVQLQESGGGLVKPGGSLRLSCAASGFTFSSYSMNWVRQAPGKGLEWVSSISSSSSYIYYADSVKGRFTISRDNAKNSLYLQMNSLRAEDTAVYYCARASENGDDAFDIWGQGTMVTVSS
VL: EIVLTQSPATLSLSPGERATLSCRASQSVSSYLAWYQQKPGQAPRLLIYDASNRATGIPARFSGSGSGTDFTLTISSLEPEDFAVYYCQQRSNWPPYTFGQGTKLEIK
B19: CA143 (human antibody on a human IgG1 backbone) (antibody, V domains shown)
VH: B5 VH with R100S, V101L, E102P, M103A, A104G, F105D, H106Y
VL: DIQLTQSPSFLSASVGDRVTITCRASQGISSYLAWYQQKPGKAPKLLIYAASTLQSGVPSRFSGSGSGTEFTLTISSLQPEDFATYYCQQLNSYPQTTFGGGTKVEIK
B20: CA149 (antibody, V domains shown)
VH: EVQLVESGGGLVKPGGSLRLSCAASGFTFSSYSMNWVRQAPGKGLEWVSSISSSSSYIYYADSVKGRFTISRDNAKNSLYLQMNSLRAEDTAVYYCARCAAGFVPDAFDIWGQGTMVTVSS
VL: not shown
B21: CA134 (antibody, V domains shown)
VH: EVQLVESGGGLVKPGGSLRLSCAASGFTFSSYSMNWVRQAPGKGLEWVSSISSSSSYIYYADSVKGRFTISRDNAKNSLYLQMNSLRAEDTAVYYCARVFGEQLVSFFDYWGQGTLVTVSS
VL: not shown
B22: CA125 (antibody, V domains shown)
VH: B20 VH with C99V, A100V, A101D, G102T, F103A, V104M, P105G
VL: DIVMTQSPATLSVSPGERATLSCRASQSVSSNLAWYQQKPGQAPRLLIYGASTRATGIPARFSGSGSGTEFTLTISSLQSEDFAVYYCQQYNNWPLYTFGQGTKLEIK
B23: CA156 (antibody, V domains shown)
VH: B21 VH with V99D, G101S, E102G, Q103D, L104F, V105W, F107G, F108Y
VL: not shown
B24: CA171 (antibody, V domains shown)
VH: B20 VH with K13Q, S50Y, Y57T, C99T, A100F, A101Y, G102S, F103N, V104Y, P105L
VL: EIVLTQSPDTLSMCPGERATLSCRASQSVSSYLAWYQQKPGQAPRLLIYDASNRATGIPARFSGSGSGTDFTLTISSLEPEDFAVYYCQQRSNWLSMYTFGQGTKLEIK

The binders below were run against T1, HLA-E-RL9SIV single chain trimer on transfected 293T cells (human, UniProt P61769 21-119; P13747 22-358) (assay: flow cytometry, SCT-transfected 293T cells, MFI bar chart [E]).
T1 construct: also called control HLA-E-peptide complex
B1: no binding (tested: 2 µg/ml). B2: no binding (tested: 2 µg/ml). B3: no binding (tested: 2 µg/ml). B4: no binding (tested: 2 µg/ml). B5: no binding (tested: 2 µg/ml). B6: no binding (tested: 2 µg/ml). B7: no binding (tested: 2 µg/ml). B8: no binding (tested: 2 µg/ml). B9: no binding (tested: 2 µg/ml). B10: no binding (tested: 2 µg/ml). B11: no binding (tested: 2 µg/ml). B12: no binding (tested: 2 µg/ml). B13: no binding (tested: 2 µg/ml). B14: no binding (tested: 2 µg/ml). B15: no binding (tested: 2 µg/ml). B16: no binding (tested: 2 µg/ml). B17: no binding (tested: 2 µg/ml). B18: no binding (tested: 2 µg/ml). B19: no binding (tested: 2 µg/ml). B20: no binding (tested: 2 µg/ml). B21: no binding (tested: 2 µg/ml). B22: no binding (tested: 2 µg/ml). B23: no binding (tested: 2 µg/ml).

What follows are binders tested against T2, HLA-E-RL9HIV single chain trimer on transfected 293T cells (human, UniProt P61769 21-119; P13747 22-358) in the same assay as above.
T2 construct: also called control HLA-E-peptide complex
B1: no binding (tested: 2 µg/ml). B2: no binding (tested: 2 µg/ml). B3: no binding (tested: 2 µg/ml). B4: no binding (tested: 2 µg/ml). B5: no binding (tested: 2 µg/ml). B6: no binding (tested: 2 µg/ml). B7: no binding (tested: 2 µg/ml). B8: no binding (tested: 2 µg/ml). B9: no binding (tested: 2 µg/ml). B10: no binding (tested: 2 µg/ml). B11: no binding (tested: 2 µg/ml). B12: no binding (tested: 2 µg/ml). B13: no binding (tested: 2 µg/ml). B14: no binding (tested: 2 µg/ml). B15: no binding (tested: 2 µg/ml). B16: no binding (tested: 2 µg/ml). B17: no binding (tested: 2 µg/ml). B18: no binding (tested: 2 µg/ml). B19: no binding (tested: 2 µg/ml). B20: no binding (tested: 2 µg/ml). B24: no binding (tested: 2 µg/ml). B21: no binding (tested: 2 µg/ml). B22: no binding (tested: 2 µg/ml). B23: no binding (tested: 2 µg/ml).
